Source: PMC11147780, “Vaccination induces broadly neutralizing antibody precursors to HIV gp41” (Nature Immunology, 2024)
Numbering of substitutions follows the chain as printed.

T1: 10E8-GT10.2 epitope scaffold (designed scaffold 10E8-GT10.2 with …, N-linked glycosylation sites added (positions not given))
T1 chain: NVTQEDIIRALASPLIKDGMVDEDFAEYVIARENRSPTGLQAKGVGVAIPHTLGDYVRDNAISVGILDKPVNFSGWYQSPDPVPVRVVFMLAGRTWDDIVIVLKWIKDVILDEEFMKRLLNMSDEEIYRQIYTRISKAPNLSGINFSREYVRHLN

B1: NHP-10E8_MPER-GT10v55_W10-11 (antibody, V domains shown)
VH: EVQLVESGGGLVQPGGSLRLSCAASGFAFSDYTMDWVRQAPGKGLEWVGFIRSRDYGGKVDYAASVKGRFTISRDDSKNTAYLHMSSLKTEDTAVYYCTRSKRHYSFWSGDYPHYGLDSWGQGVVVTVSS
VL: QSVVTQPPSVSGDPGQRVTIYCTGNSSNIGGYDVYWYQQVPGTAPKLLMYENNKRPSGVSDRFSGSKSGTSASLTITGLQSEDEAEYYCETWDNSLNGRVFGGGTRLTV
B2: NHP-10E8_MPER-GT10v55_W10-12 (antibody, V domains shown)
VH: EVHLVESGGGLVQPGGSLRLSCAASGFTFSDYAMDWVRQAPGKGLEWVGFIGSKDYGGTVEYAASVKGRFTISRDDLKNTAYLQMSRLKTEDTAVYYCTRSKTCYSFWSGYYPHYGLDSWGQGVVVTVSS
VL: B1 VL with V4L, Y21S, Y32F, Q39L, V40L, M49I, N53T, V59I, V100L
B3: NHP-10E8_MPER-GT10v55_W21-05 (antibody, V domains shown)
VH: EVRLVESGGGLVQPGGSLRLSCAASGFTFSDYYMSWVRQAPGKGPEWVGFIRNKANGGTAEYAASVKGRFTISRDDSKSIASLQMNSLKTEDTAVYYCARDTYTYNFWSGYYRSNSLDVWGRGVLVTVSS
VL: SYDLTQPPSVSVSPGQTARITCGGDNIGSEAVHWYQQKPPQAPVQVIYSDSERPSGIPERFSGSKSGNTATLTISGVEAGDEADYYCQVWDISSDHYIFGAGTRLTV
B4: NHP-10E8_MPER-GT10v55_W21-06 (antibody, V domains shown)
VH: EVRLVESGGGLVQPGGSLRLSCAASGFTFSDYYMSWVRQAPGKGPEWVGFIRNKANGGTAEYAASVKGRFTISRDDSKSIASLQMNSLKTEDTAVYYCAREKVYYNFWSGYLENYGLDSWGQGVVVTVSS
VL: DVVMTQSPLSLPITPGQPASISCRSSQSLVYSDGKTYLNWYQQKPGQPPRRLIYQVSNRDSGVPDRFSGSGAGTDFTLKISRVEAEDVGVYYCMQGTHLPYSFGQGTKVEIK
B5: NHP-10E8_MPER-GT10v55_W21-07 (antibody, V domains shown)
VH: EVQLVESGGGLVQPGGSLRLSCAASGFTFSDYAMDWVRQAPGKGLEWVGFIRSKAYGGTAEYAASVKGRFTISRDDSKNTAYLQMSSLKTEDTAVYYCTRAARGYNFWSGYYTGYGLDSWGQGVVVTVSS
VL: EIVMTQSPATLSLSPGERATLSCRTSQSVSSYVAWYQQKPEQAPRLLIYGASSRATGIPDRFSGGGSGTDFTLTISSLEPEDFAVYYCQQYSNWPYSFGQGTKVEIK
B6: NHP-10E8_MPER-GT10v55_W26-01 (antibody, V domains shown)
VH: QLQLQESGPGLVKPSETLSLTCAVSGGSISSNYWSWIRQPPGKGLEWIGRISGSGGSTDYNPSLKSRVTISTDTSKNQFSLKLSSVTAADTAVYYCAGNSHYYNFWSGYYGDNSLDVWGRGVLVTVSS
VL: SYDVTQPRSVSVSPGQTARITCGGDNIGSKNVHWYQQKPAQAPVLVIYYDSDRPSGIPERFSGSNSGNTATLTISGVEAGDEADYYCQVWDSSSDHRLFGGGTRLTV
B7: NHP-10E8_MPER-GT10v55_W26-02 (antibody, V domains shown)
VH: EVQLVESGGGLAKPGGSLRLSCAASGFTFSDYYMDWVRQAPGKGLEWVSRISNGGGSTWYADSVKGRFTISRENAKNTLYLQMNSLRAEDTAVYYCASELSYYNFWSGYGASYGLDSWGQGVVVTVSS
VL: QPVLTQPTSLSASPGASARLTCTLRSGISVGSYRIFWYQQKPGSPPRYLLNYHTDSDKHQGSGVPSRFSGSKDASANAGILLISGLQSEDEADYYCMIWHNNAYIFGAGTRLTV
B8: NHP-10E8_MPER-GT10v55_W26-04 (antibody, V domains shown)
VH: EVQLVESGGGLVQPGGSLRLSCAASGFTFSSYGMHWVRQAPGKGLEWVAVIWYDGSKKYYADSVKDRFTISRDNSKNMLYLQMNNLKLEDTAVYYCARGGAYYNFWSGYYTLLNRFDVWGPGVLVTVSS
VL: DIVMTQTPLSLPVTPGEPASISCRSSQSLLDSEDGNTYLDWYLQKPGQSPQLLIYEVSNRASGVPDRFSGSGSDTDFTLKISRVEAEDVGVYYCMQGLEFPYSFGQGTKVEIK
B9: NHP-10E8_MPER-GT10v55_W26-07 (antibody, V domains shown)
VH: QVQLQESGPGLVKPSETLSLTCAVSGGSFSSYWWGWIRQTPGKGLEWIGSIYGSSGTTEYNPSHKSRATISRDTSENQFSLKLSSVTAADTAVYYCARSGEWPYNFWGGTHNPPHWYFDLWGPGTPIIISS
VL: DVVMTQSPLSLSITPGQPASISCRSSHSLIHSNGNTYLSWYQQKPGQPPRRLIYEVSKQDSGVPERFSGSGAGTDFTLKISRVEAEDVGIYYCGQGTHLPLTFGPGTKLDIK
B10: NHP-10E8_MPER-GT10v55_W21-08 (antibody, V domains shown)
VH: EVQLVESGGGLVQPGGSLRLSCAASGFTFSDYYMYWVRQAPGKGLEWVGFIRSKAYGGTAEYAASVKGRFTISRDDSKSIAYLQMSSLKTEDTAVYYCTRALPYYNFWSGYYTHFDAFDFWGQGLRVTVSS
VL: QAAPTQPPSVSGSPGQSVTISCTGTSSDIGYYNAVSWYQQHPGKAPKLMIYEVSKRPSGVSDRFSGSKSGNTASLTISGLQAEDEADYYCSSYAGSNTLLFGGGTRLTV
B11: NHP-10E8_MPER-GT10v55_W21-09 (antibody, V domains shown)
VH: EVRLVESGGGLVQPGGSLRLSCAASGFTFSDYYMSWVRQAPGKGPEWVGFIRNKANGGTAEYAASVKGRFTISRDDSKSIASLQMNSLKTEDTAVYYCARESPYYNFWSGYYGTNDAFDFWGQGLRVTVSS
VL: QPVLTQSPSASASLGASVKLTCTLSSGHSSYAIAWHQQQQGKAPRYLMRLNSVGSHSKGDGIPDRFSGSSSGAERYLTISNLQSEDEADYYCQTWTTGIQVFGGGTRLTV
B12: NHP-10E8_MPER-GT10v55_W21-10 (antibody, V domains shown)
VH: EVRLVESGGDLVQPGGSLRLSCAASGFTFSYYSMSWVRQAPGKGLEWIGFIKNKADGGTEAYAESVKGRFTISRDDSENTLYLQMNSLKTDDTAVYSCTRGRVYYNFWSGFYTGGRFDVWGPGVLVTVSS
VL: B8 VL with V84L, Y102F, S103T, Q106P, V110L, E111D
B13: NHP-10E8_MPER-GT10v55_W21-11 (antibody, V domains shown)
VH: B3 VH with T102R, Y103G, T104N, Y112S, R113G, N115D, S116Y, L117F, V119Y, R122Q
VL: QSVLTQPPSVSAAPGQKVTISCSGSSSNIGRSYVSWYQQVPGTAPKLLIYDNNKRPSGVSDRFSGSKSGTSASLAITGLQTGDEADYYCGAWDSSLSAGLFGGGTRLTV
B14: NHP-10E8_MPER-GT10v55_W21-13 (antibody, V domains shown)
VH: QLQLQESGPGLVKPSETLSLTCAVSGGSISGGYGWSWIRQPLGKGLEWIGHIFGSIGSTYYNPSLKSRVTISTDTSKNQFSLKLSSVTAADTAVYYCARTRSFYNFWSGYYTRHAFDFWGQGLRVTVSS
VL: B8 VL with P15L, D40E, G97A, Y102P, S103T
B15: NHP-10E8_MPER-GT10v55_W21-14 (antibody, V domains shown)
VH: QVQLQESGPGLVKPSETLSLTCAVSGGSISSGYYYWSWIRQPPGKGLEWIGYITYSGSTSYNPSLKSRVTISRDTSKNQFSLKLSSVTAADTAVYYCASAPSYYNFWSGYYHLDYFDYWGQGVLVTVSS
VL: QSVLTQPPSVSGAPGQRVTISCTGSSSNIGGYYVSWYQQLPGTTPKLLIYQDNKRPSGVSDRFSGSKSGTSASLTITGLQTEDEADYYCLSYDSSLSAHGLFGGGTRLTV
B16: NHP-10E8_MPER-GT10v55_W21-15 (antibody, V domains shown)
VH: QLQLQESGPGLVKPSETLSLTCAVSGGSISSSNWWSWIRQPPGKGLEWIGRISGSGGSTSDNPSLKSRVTISKDTSKNQFSLKLSSVTAADTAVYYCASESFYYNFWSGYYQENSLDVWGRGVLVTVSS
VL: QPVLTQPTSLSASPGASARLSCTLSSGINVGSYSIFWYQQKPGSPPRYLLYYYSDSSKHQGSGVPSRFSGSKDASANAGLLLISGLQSEDEADYYCAIWHSSAYVLFGGGTRLTV
B17: NHP-10E8_MPER-GT10v55_W21-16 (antibody, V domains shown)
VH: B15 VH with S99R, A100V, P101G, S102V, H112T, L113N, D114T
VL: B10 VL with L99F, L100I, G103A
B18: NHP-10E8_MPER-GT10v55_W21-17 (antibody, V domains shown)
VH: QVQLQESGPGLVKPSETLSLTCVVAGGSISDDYYWSWIRQSPGKGLEWIGYIYGSGGGTKYNPSLKNRVTISIDTSKNQFSLKLSSVTAADTAVYYCARELRYYNFWSGYYDNYYGLDSWGQGVVVTVSS
VL: DIVMTQTPLSLPITPGEPASISCRSSQSLLHSTGNTYLHWYLQKPGQSPQLLIYGGSNRASGVPDRFSGSGSGTDFTLKISKVEAEDVGVYYCVQAIAFPFTFGPGTKLDIK
B19: NHP-10E8_MPER-GT10v55_W21-18 (antibody, V domains shown)
VH: QLQLQESGPGLVKPSETLSLTCAVSGGSISSSYWSWIRQAPGKGLEWIGYIYGSGSSTNYNPSLKSRVTLSVDTSKNQLSLKLSSVTAADTAVYYCARDVKDYNFWSGYYEDGYFDYWGQGVLVTVSS
VL: DIVMTQTPLSLPVTPGEPASISCRSSQSLLHSNGNTYLHWYLQKPGQSPRLLIYKVTNRESGVPDRFSGSGSGTDFTLKISRVEPEDVGVYYCMQSTKDPYSFGQGTKVEIK
B20: NHP-Comp_MPER-GT10v55_W21-01 (antibody, V domains shown)
VH: QVQLQESGPGLVKPSETLSLTCAVSGGSFSSYWWGWIRQPPGKGLEWIGSIYGSSGSTEYNPSLKSRATISRDTSKNQFSLKLSSVTAADTAVYYCARVKAPEIFGVVITGYYFDYWGQGVLVTVSS
VL: SYELTQPLSVSVALGQMARITCGGNNIGRKYVYWYQQKPDQAPVLVIYEDSKRPSGIPERFAGSNSGNTATLTIDGAQARDEADYYCQVWDSSTAYIFGAGTRLTV
B21: NHP-Comp_MPER-GT10v55_W21-02 (antibody, V domains shown)
VH: QVQLQESGPAVVKPSETLSLTCAVSGGSISSNNWWSWIRQSPGKGLEWIGGLYGSGGNTEYYPSLKSRVTISVDTSKNQFSLKLSSVTAADTAVYYCASPAPYYGRGYSFDAFDFWGQGLRVTVSS
VL: QSALTQPPSVSKSLGQSVTISCTGTSSDIGGYNGVSWYQQHSGTAPKLLIYDVNKRPSGVSDRFSGSKSGNTASLTISGLQAEDEADYYCCSYRGGSTYWVFGGGTRLTV

Target: T1, 10E8-GT10.2 epitope scaffold

Q: Which Kd does the source give for B1 here?
A: 4.16 µM

Q: Which Kd does the source give for B2 here?
A: 0.752 µM

Q: B3 was tested. Which Kd did it give?
A: 2.41 µM

Q: B4 was tested. Which Kd did it give?
A: 5.92 µM

Q: For B5, which Kd is on record?
A: 7.64 µM

Q: How did the Kd turn out when B6 was run?
A: 3.69 µM

Q: How did the Kd turn out when B7 was run?
A: 3.09 µM

Q: Which Kd does the source give for B8 here?
A: 5.05 µM

Q: B9 was tested. Which Kd did it give?
A: 0.0326 µM

Q: Which Kd does the source give for B10 here?
A: 13.2 µM

Q: Which Kd does the source give for B11 here?
A: 3.32 µM

Q: With B12 as the binder, how does the Kd read?
A: 0.00081 µM

Q: Which Kd does the source give for B13 here?
A: 8.11 µM

Q: How did the Kd turn out when B14 was run?
A: 1.3 µM

Q: With B15 as the binder, how does the Kd read?
A: 2.4 µM

Q: With B16 as the binder, how does the Kd read?
A: 5.13 µM

Q: How did the Kd turn out when B17 was run?
A: 2.4 µM

Q: With B18 as the binder, how does the Kd read?
A: 0.00241 µM

Q: Which Kd does the source give for B19 here?
A: 6 µM

Q: How did the Kd turn out when B20 was run?
A: 2.63 µM

Q: With B21 as the binder, how does the Kd read?
A: 6.84 µM
